B5: 6xHis-TEV-Mto1[bonsai] (Mto1 residues 131-549) (domain or fragment, S. pombe, UniProt O94488 131-549, looked up)
chain: TTDDEQLSPVLTANQGFQSQEQYEEDSYNNYDYTSDPSSPNYISSSLDQLPHLDDEDDLQLTPIKEERNYLHSQDAPTTNALSKKISDILIPASAMKDLKDRKNALAKEFEESQPGSSLTLKEQANVIDNLRKEVFGLKLKCYFLYDQLNKFHDQEVQDIMKQNIDLKTLTMELQRAVAGYEKKISGLESRIKPDQSFNLSTPSPAPSNLITLQSRYSQALSELETTKRAFAALRKEKSKKTNYSVGAYNEDRNVLSNMLDNERREKEALLQELESLRVQLSKKVPMPAKNTDERVIETLQRSNELLRMDISMQNEALLLRKQENDRLVKQVEELTVALNSGKMNAIVEAESSKNELWDSMMVSRMKTQEQSIELTRLYKQLQDIEEDYENKLMRMEQQWREDVDQLQEYVEEITQELQ
notes: Mto1, S. pombe CM1 protein, residues 131-549 of full-length Mto1 (1115 residues); a TEV site lies between the 6xHis tag and Mto1; Dimeric by SEC-MALS; No TEV cleavage is described; also called 6xHis-tagged Mto1[bonsai]; source: Sf9 (MultiBac baculovirus), purified (nickel chelate, Superose 6 SEC); expressed alone or co-expressed with untagged Mto2; not shown: His6, N-terminal, kept

Series [1] deals with the molecule itself. The series is described as follows: SEC-MALS; Superdex 75 10/300 for protein fragments; NND injected at ∼5 mg/mL (600 µM) and a dilution series, TCD at ∼10 mg/mL (1000 µM) and a dilution series. (In general: Size exclusion chromatography separates by hydrodynamic size, large species first.)
Series [2] deals with the molecule itself. The series is described as follows: SEC; SEC-dilution analysis, Superose 6 10/300, 4°C, 100 µL loaded; undiluted ∼9 mg/mL (co-purified Mto1/2[bonsai]), ∼1.5 mg/mL (Mto1[bonsai]), ∼2.5 mg/mL (Mto2), and 10X dilution; fractions by SDS-PAGE and western blot.
Series [3] addresses B5. The series is described as above. The note with it: both partners purified.
Series [4] deals with the molecule itself. The series is described as follows: cross-linking; EDC/Sulfo-NHS zero-length cross-linking with mass spectrometry (CLMS) of co-purified Mto1/2[bonsai] complex; phosphate pH 7.5, 300 mM NaCl, 5% glycerol, 2 h at 18°C.
Series [5] deals with the molecule itself. Nature of the series: SEC-MALS; Superose 6 10/300 for full-length proteins and complexes; injected at ∼4.5 mg/mL (Mto1/2[bonsai]), ∼1.3 mg/mL (Mto1[bonsai]), ∼1.6 mg/mL (Mto2), 1.4 mg/mL (Mto2-134A136A), 1.3 mg/mL (Mto2-134AAA).
Series [6] concerns the molecule itself. The series is described as follows: ITC; dilution series, 25°C, iTC200; 100 µM NND injected (20 x 2 µL) into 50 mM Tris-HCl pH 8.0, 150 mM NaCl, 2 mM EDTA; dimer dissociation model; dimer to monomers. Background: ITC needs no label: the signal is the heat of the interaction.
Series [7] concerns the molecule itself. Nature of the series: cross-linking; intermolecular disulfide between engineered cysteines; SDS-PAGE with and without β-mercaptoethanol.

B1: Mto2 Twin-Cysteine Domain (TCD; Mto2 residues 180-265) (domain or fragment, S. pombe, UniProt Q9USP7 180-265, looked up)
chain: PAPLSTMQTALMRLRTYHPSPIILKPVEQAVNHAITLVNTSPSSVVDALCRSLAELCLGLVQEAIDASILSQQESSNSLDLVRHTP
notes: Mto2, S. pombe, residues 180-265 (TCD); Residues 180-250 (chain A) and 180-248 (chain B) are built in the structure; source: E. coli BL21(DE3) pRIL, purified (glutathione-sepharose, TEV cleavage, SEC); selenomethionine-labelled protein from B834(DE3); not shown: GST, N-terminal, cleaved
B1: in series [1], the stoichiometry N (in general, the number of molecules, sites or subunits per partner or assembly) was 2.

B2: 6xHis-tagged Mto2 (natural protein, S. pombe, UniProt Q9USP7 1-397, looked up)
chain: MSEHNYQSDREVAEDPFLNYEASANQLSSNSRESTPRGSPWRAGMRSASLMTEPLEDSMYSDNNYLDNGVSFTKDENPLYSPSWPSLADANVNSMKSNNAIQEHKAAKFVSEKSLEKVSTADNNLVLQELENLRERLNQVELQLSERPSSYLGYHNNLSPYRSPNSYPSLLPSTHSPHSPAPLSTMQTALMRLRTYHPSPIILKPVEQAVNHAITLVNTSPSSVVDALCRSLAELCLGLVQEAIDASILSQQESSNSLDLVRHTPPLNYTSSVDSSPQRMASDSYGRPSLHLNDPFPSVDLQSNELSHHNVRTTLFSDDSRFHSKIHTHSTPPSQMYSAASHFRYRSDPSTRHVSNSTNKSSLHPSPTSLRVAHPIIPQRASPASQSFPSLQDTPSP
notes: Forms a range of multimers; Construct described in Leong et al., 2019; also called wild-type Mto2; 6xHis-Mto2; source: Sf9 (MultiBac baculovirus), purified (nickel chelate, Superose 6 SEC); also Sf9 co-infected with GST-Mto1[bonsai] virus, in lysate
Take B2: the binding result in series [2] is recorded as “binds”.

B3: Mto2, untagged, co-expressed with 6xHis-Mto1[bonsai] (natural protein, S. pombe, UniProt Q9USP7 1-397, looked up)
chain: MSEHNYQSDREVAEDPFLNYEASANQLSSNSRESTPRGSPWRAGMRSASLMTEPLEDSMYSDNNYLDNGVSFTKDENPLYSPSWPSLADANVNSMKSNNAIQEHKAAKFVSEKSLEKVSTADNNLVLQELENLRERLNQVELQLSERPSSYLGYHNNLSPYRSPNSYPSLLPSTHSPHSPAPLSTMQTALMRLRTYHPSPIILKPVEQAVNHAITLVNTSPSSVVDALCRSLAELCLGLVQEAIDASILSQQESSNSLDLVRHTPPLNYTSSVDSSPQRMASDSYGRPSLHLNDPFPSVDLQSNELSHHNVRTTLFSDDSRFHSKIHTHSTPPSQMYSAASHFRYRSDPSTRHVSNSTNKSSLHPSPTSLRVAHPIIPQRASPASQSFPSLQDTPSP
notes: Mto2, S. pombe; for coexpression the tag was present only on Mto1[bonsai]; Construct described in Leong et al., 2019; also called Mto2 (of the Mto1/2[bonsai] complex); source: Sf9 (MultiBac baculovirus), co-expressed and co-purified with 6xHis-Mto1[bonsai]
Turning to B3, the “stoichiometry N” value in series [3] is about 1. The binding result in series [4] is “binds”.

B4: Mto1/2[bonsai] complex (complex, S. pombe)
chain 1: TTDDEQLSPVLTANQGFQSQEQYEEDSYNNYDYTSDPSSPNYISSSLDQLPHLDDEDDLQLTPIKEERNYLHSQDAPTTNALSKKISDILIPASAMKDLKDRKNALAKEFEESQPGSSLTLKEQANVIDNLRKEVFGLKLKCYFLYDQLNKFHDQEVQDIMKQNIDLKTLTMELQRAVAGYEKKISGLESRIKPDQSFNLSTPSPAPSNLITLQSRYSQALSELETTKRAFAALRKEKSKKTNYSVGAYNEDRNVLSNMLDNERREKEALLQELESLRVQLSKKVPMPAKNTDERVIETLQRSNELLRMDISMQNEALLLRKQENDRLVKQVEELTVALNSGKMNAIVEAESSKNELWDSMMVSRMKTQEQSIELTRLYKQLQDIEEDYENKLMRMEQQWREDVDQLQEYVEEITQELQ
chain 2: MSEHNYQSDREVAEDPFLNYEASANQLSSNSRESTPRGSPWRAGMRSASLMTEPLEDSMYSDNNYLDNGVSFTKDENPLYSPSWPSLADANVNSMKSNNAIQEHKAAKFVSEKSLEKVSTADNNLVLQELENLRERLNQVELQLSERPSSYLGYHNNLSPYRSPNSYPSLLPSTHSPHSPAPLSTMQTALMRLRTYHPSPIILKPVEQAVNHAITLVNTSPSSVVDALCRSLAELCLGLVQEAIDASILSQQESSNSLDLVRHTPPLNYTSSVDSSPQRMASDSYGRPSLHLNDPFPSVDLQSNELSHHNVRTTLFSDDSRFHSKIHTHSTPPSQMYSAASHFRYRSDPSTRHVSNSTNKSSLHPSPTSLRVAHPIIPQRASPASQSFPSLQDTPSP
notes: Mto1, S. pombe, residues 131-549 of full-length Mto1 (Mto1[bonsai]); Mto2, S. pombe, untagged in the co-expression; Near-equal stoichiometry of the two chains; a range of multimer sizes, so no copy numbers; also called 6xHis-tagged Mto1/2[bonsai]; recombinant Mto1/2[bonsai]; source: Sf9 (MultiBac baculovirus), co-expressed, purified (nickel chelate, Superose 6 SEC); not shown: His6, N-terminal, …
Take B4: in series [5], the binding result was “binds”. In the case of B5, in series [5], the “stoichiometry N” value amounted to 2.

B6: Mto2 Near-N-terminal Domain (NND; Mto2 residues 78-153) (domain or fragment, S. pombe, UniProt Q9USP7 78-153, looked up)
chain: PLYSPSWPSLADANVNSMKSNNAIQEHKAAKFVSEKSLEKVSTADNNLVLQELENLRERLNQVELQLSERPSSYLG
notes: Mto2, S. pombe, residues 78-153 (NND); Weak homodimer that dissociates upon dilution; also called wild-type NND; source: E. coli BL21(DE3) pRIL, purified (glutathione-sepharose, TEV cleavage, SEC); not shown: GST, N-terminal, cleaved
Consider B6, for which, in series [1], the “stoichiometry N” value was 2. Binding in series [6] was put at a Kd of 15 µM.

B7: NND-N123C (domain or fragment, S. pombe, UniProt Q9USP7 78-153, looked up)
chain: PLYSPSWPSLADANVNSMKSNNAIQEHKAAKFVSEKSLEKVSTADCNLVLQELENLRERLNQVELQLSERPSSYLG
notes: Mto2, S. pombe, residues 78-153 (NND) with N123C; Disulfide-linked dimer under non-reducing conditions; source: E. coli BL21(DE3) pRIL, purified (glutathione-sepharose, TEV cleavage, SEC); not shown: GST, N-terminal, cleaved
On to B7, for which, in series [7], the binding result is recorded as “binds”.

B8: NND-R147C (domain or fragment, S. pombe, UniProt Q9USP7 78-153, looked up)
chain: PLYSPSWPSLADANVNSMKSNNAIQEHKAAKFVSEKSLEKVSTADNNLVLQELENLRERLNQVELQLSECPSSYLG
notes: Mto2, S. pombe, residues 78-153 (NND) with R147C; Disulfide-linked dimer under non-reducing conditions; source: E. coli BL21(DE3) pRIL, purified (glutathione-sepharose, TEV cleavage, SEC); not shown: GST, N-terminal, cleaved
For B8, in series [7], the binding result was “binds”.

The values above are taken from publication doi:10.1101/754457, “Architecture of the Mto1/2 microtubule nucleation complex” (bioRxiv, 2019).
